Data reported in the supplement of paper PMC10567573.

B1: CLINT1 (parent)
chain: VVTSAREHIYDLRSLENYHFVDEH

Variants of: B1
Assay: protein stability index of a GFP-peptide fusion (GPS, HEK-293T) (PSI 1-6); higher = more stable
Details: c terminus: a fixed tail appended
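Note: lentivirally expressed fusions sorted by FACS into six bins by GFP to DsRed ratio, PSI derived from sequencing read proportions per bin multiplied by bin number.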

Protein stability index, by site and new letter:
E7: K 2.77; M 1.39; Y 2.57; T 2.73; N 2.64; R 2.07; G 1.73; F 1.9; W 2.44; P 2.44; C 1.86; Q 1.85; A 2.41; D 2.29; L 2.3; V 2.26; H 2.17; S 2.4
H8: K 2.45; I 2.65; Y 1.89; C 2.1; A 2.52; F 1.9; E 2.99; V 2.22; L 2.29; M 2.33; D 3.48; N 2.83; Q 3.16; R 2.61; T 2.91; P 3.21; S 3.31; G 3.13; W 2.12
F20: L 4.22; G 3.54; Q 3.73; S 3.79; D 4.77; R 3.24; K 3.33; P 3.96; C 3.46; T 2.99; A 4.11; W 2.58; H 3.57; M 3.26; N 3.77; V 3.71; I 3.43; Y 3.24; E 3.97
E16: F 2.13; C 1.93; R 2.43; S 2.67; G 2.11; N 2.62; H 2.26; P 3.32; Y 1.56; K 2.59; Q 2.38; V 2.36; T 2.46; I 2.12; M 3.01; L 2.47; W 1.83; D 2.77; A 2.19
H19: V 2.11; K 4.3; L 2.68; E 3.8; W 1.6; T 3.28; A 2.03; Q 3.12; F 2.26; Y 2.55; N 3.09; M 2.4; I 2.41; G 3.16; D 3.99; S 3.21; C 2.33; P 3; R 3.52
D22: A 2.1; I 1.09; E 2.42; S 2.31; Q 2.59; F 2.2; P 2.58; L 1.57; H 2.93; R 2.38; C 1.98; G 2.85; N 2.35; K 2.49; M 1.66
Y18: F 2.5; S 4.05; A 3.65; L 2.94; N 4.48; P 3.71; H 3.59; M 2.88; E 4.26; W 2.94; D 4.14; T 3.94; K 3.6; Q 3.87; I 3; R 3.72; G 3.78; C 3.3; V 3.24
N17: C 2.35; S 2.18; A 2.95; M 2.35; G 2.81; R 2.95; K 2.63; H 2.45; V 2.14; W 1.96; E 2.96; L 2.09; P 3.32; I 1.83; F 1.86; Q 2.15; T 2.67; Y 1.97; D 3.52
S14: L 2.72; K 2.69; V 2.11; D 3.24; M 2.49; G 3.45; W 2.2; H 2.25; P 2.24; Q 2.31; E 2.87; A 3.52; T 2.63; Y 2.02; F 2.57; C 2.24; R 2.44; N 3.07; I 2.15
Y10: Q 3.75; V 2.67; C 3.66; M 3.01; E 4.17; S 3.37; I 2.32; G 3.91; A 3.84; R 3.78; P 4.21; T 3.8; L 2.71; N 3.71; F 2.42; H 2.9; W 2.06; D 3.94; K 3.64
R13: G 2.7; Q 3.06; D 3.59; K 3.45; I 2.49; C 2.38; T 3.35; F 1.73; Y 1.95; H 2.67; P 3.58; S 3.18; L 1.97; E 3.73; A 3.55; N 3.35; V 2.86; W 2.08; M 2.9
D11: R 2.62; L 2.44; V 2.89; Q 2.54; Y 2.02; E 2.38; W 2.13; T 2.17; M 2.62; P 2.56; H 2.3; C 2.4; S 2.64; N 2.63; K 2.13; G 2.61; A 2.79; F 1.25; I 2.83
A5: S 3.15; R 2.67; Q 3.71; W 2.16; K 2.36; H 2.83; P 3.35; V 2.24; F 2.53; Y 2.24; N 2.92; M 2.57; T 2.98; G 3.15; I 3.23; L 1.97
R6: P 3.08; Q 3.4; L 1.75; W 3.17; S 3.93; D 3.63; A 2.45; I 1.84; N 3.14; E 3.87; T 2.75; Y 2.35; G 3.04; F 1.55; H 3.07; M 2.33; K 3.48; V 2.31; C 2.91
I9: F 2.61; H 3.24; W 2.21; P 3.59; R 3.66; G 3.83; C 2.83; S 4.07; L 2.83; T 3.31; K 3.48; D 3.54; N 4.5; Y 2.15; Q 4.09; E 3.62; M 3.06; V 3.16; A 2.98
L12: I 2.89; G 3.78; W 2.7; K 3.78; Q 4.09; R 3.6; D 4.08; V 2.7; N 3.78; P 3.21; A 3.42; F 2.61; M 3.39; H 3.32; Y 2.4; E 4.03; S 3.13; C 2.61; T 3.99
L15: S 2.95; T 3.2; W 2.56; D 3.8; C 3.05; I 2.99; E 3.46; M 2.62; V 3.04; G 3.56; P 3.31; Q 3.66; F 2.4; H 3.58; A 3.32; R 3.53; N 3.1; K 3.36; Y 2.91
V21: F 2.48; W 2.54; G 3.49; S 2.96; R 2.54; P 3.38; C 2.78; D 3.74; Q 3.25; H 2.98; A 3.44; L 2.82; M 2.54; E 3.79; K 2.53; I 2.52; T 2.84; N 3.44; Y 2.47
